Test results published in PMC5550006.

Target: recombinant IPSE/alpha-1 expressed in tobacco plants (N-terminally tagged H6F-IPSE) (Schistosoma mansoni)
Assay: SDS-PAGE under reducing and non-reducing conditions; purified IPSE on a 12% Bis-Tris gel, with and without DTT, Coomassie brilliant blue staining

“recombinant IPSE/alpha-1 expressed in tobacco plants (N-terminally tagged H6F-IPSE) (natural protein)” was tested, and the stoichiometry N was 2.
